Results on one substance are retold here after patent US5763571.

This assay deals with c-Ha-Ras bound to GTP (Ras-GTP) (Homo sapiens (Human)) (UniProt P01112). In words: assay not given.

Substance Raf(1-137) gave a fold reduction in binding affinity against Raf(1-149) of 10 fold.
